{"source": "paper PMC3681735", "target": "NtRPT6-GFP (Nicotiana tabacum) (UniProt L7UU40)"}
{"substance": "XopJ-myc (from UniProt A0AB38E6N7 1-316) (natural protein)", "values": [{"measurement": "proteasome activity (breakdown of Suc-LLVY-AMC) in total extracts of N. benthamiana leaves transiently expressing XopJ-myc, against the empty vector control", "result": 40, "unit": "%"}]}
